How the values were obtained:
GST-HPV16 E7 = GST-HPV16 E7 (UniProt P03129)
His-p27 = His-p27 (UniProt P46527)
Chain of His-p27 (P46527 whole entry, looked up): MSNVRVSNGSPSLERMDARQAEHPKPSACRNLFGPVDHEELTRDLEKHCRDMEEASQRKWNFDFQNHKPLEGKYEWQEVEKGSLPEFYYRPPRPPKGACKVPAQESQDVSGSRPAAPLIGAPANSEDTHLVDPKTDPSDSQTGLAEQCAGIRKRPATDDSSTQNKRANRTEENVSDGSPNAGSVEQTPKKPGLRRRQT

Chain of GST-HPV16 E7 (P03129 whole entry): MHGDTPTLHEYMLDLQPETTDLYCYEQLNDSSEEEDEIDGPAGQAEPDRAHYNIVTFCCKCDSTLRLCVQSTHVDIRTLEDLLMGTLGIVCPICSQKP

**Q.** CDK5 complexed with p25 was tested. Which “H1 phosphorylation by CDK5 complexed with p25, increase over controls” value (GST-HPV16 E7) did it give?
**A.** The value was “a 4.5-fold increase over controls”.

**Q.** Which “Km for histone H1 (cyclinA/CDK2 pre-incubated with HPV16-E7, Michaelis-Menten fit)” value (histone H1) does the source give for cyclin A/CDK2 complex here?
**A.** Its value is “a Km of 1.1+/-0.2 µM for histone H1”.

**Q.** With cyclin E/CDK2 complex as the substance, how does the “cyclin E/CDK2 phosphorylation of MBP-HPV 18 E1” value (His-p27) read?
**A.** The value was “The phosphorylation of E1 was completely inhibited by the addition of p27 even in the presence of excess GST-16E7”.

**Q.** What about the “cyclin E/CDK2 phosphorylation of purified MBP-HPV 18 E1 fusion protein” value (GST-HPV16 E7) of the same substance?
**A.** Its value is “stimulated 2.3-fold by the addition of HPV 16E7”.

**Q.** What about the “cyclinE/CDK2 kinase activity with histoneH1 as the substrate, increase over controls” value (GST-HPV16 E7) of the same substance?
**A.** Its value is “a large increase (26-fold and 13-fold) over controls”.

**Q.** What about the “cyclinE/CDK2 kinase activity with pRb as the substrate, increase over background” value (GST-HPV16 E7) of the same substance?
**A.** The value was 1.9-fold increase over background.

— patent US20010029022
